Measurements as given in article doi:10.1101/2024.07.11.602936 (bioRxiv, 2024).

Target: the molecule itself
Test: cryo-EM structure

B1: glutamine synthetase (GS) (enzyme)
chain: MATSASSHLNKGIKQMYMNLPQGEKIQLMYIWVDGTGEGLRCKTRTLDCDPKCVEELPEWNFDGSSTFQSEGSNSDMYLHPVAMFRDPFRRDPNKLVFCEVFKYNRKPAETNLRHSCKRIMDMVSSQHPWFGMEQEYTLMGTDGHPFGWPSNGFPGPQGPYYCGVGADKAYGRDIVEAHYRACLYAGIKITGTNAEVMPAQWEFQIGPCEGIRMGDHLWVARFILHRVCEDFGVIATFDPKPIPGNWNGAGCHTNFSTKAMREENGLRCIEEAIDKLSKRHQYHIRAYDPKGGLDNARRLTGFHETSNINDFSAGVANRSASIRIPRIVGQEKKGYFEDRRPSANCDPYAVTEAIVRTCLLNETGDEPFQYKN
  stoichiometry N: 10
